This is an account of results in PMC2192030.

This experiment has as its target Xenopus Mad1 (Xenopus (endogenous in Xenopus egg extract)). The experiment can be described thus: co-IP.

Xenopus Mad2 (natural protein) came in with a percent of Mad2 removed by immunodepletion of Mad1 of 20 to 40%.
